Source: the supplement of paper PMC7877785
± gives the uncertainty stated by the source.

Assay: self-splicing fitness, log relative to wild type (ln ratio); higher = more splicing; Tetrahymena group I intron in knt gene, E. coli kanamycin selection, DiMSum; sequences stand for … in CUCUCU…GGAGGGAAAAGUUAUCAGGCAUGCACCUGGUAGCUAGUCUUUAAACCAAUAGAUUGCAUCGGUUUAAAAGGCAAGACCGUCAAAUUGCGGGAAAGGGGUCAACAGCCGUUCAGUACCAAGUCUCAGGGGAAACUUUGAGAUGGCCUUGCAAAGGGUAUGGUAAUAAGCUGACGGACAUGGUCCUAACCACGCAGCCAAGUCCUAAGUCAACAGAUCUUCUGUUGAUAUGGAUGCAGUUCACAGACUAAAUGUCGGUCGGGGAAGAUGUAUUCUUCUCAUAAGAUAUAGUCGGACCUCUCCUUAAUGGGAGCUAGCGGAUGAAGUGAUGCAACACUGGAGCCGCUGGGAACUAAUUUGUAUGCGAAAGUAUAUUGAUUAGUUUUGGAGUACUCGUGGUCG
Procedure, shortened: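 Pooled colonies went to amplicon sequencing on an Illumina HiSeq 2500 after six replicate transformations. The plates were LB agar with 100 μg/mL carbenicillin, 50 μM IPTG and 0.2% rhamnose, with or without 25 μg/mL kanamycin, incubated overnight at 37°C or 30°C. The E. coli BL21(DE3) library had all eight P1ex-region intron nucleotides randomised, the intron placed in the knt kanamycin-resistance gene on pET-22b(+). DiMSum fitness is the error-weighted combination of replicate fold changes, kanamycin against none, normalised to wild type.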

Sequence | self-splicing fitness (ln) (30 °C) | self-splicing fitness (ln) (37 °C)
GGUGAGCAAUAUUACGUGCA | -0.986 ± 0.12 | -0.496 ± 0.14
UUAGAGCAAUAUUACGCCUG | -0.457 ± 0.11 | 0.235 ± 0.18
UGCUAGCAAUAUUACGCGCC | -1.26 ± 0.2 | -0.477 ± 0.29
AGGAAGCAAUAUUACGGCAA | -1.52 ± 0.096 | -0.574 ± 0.12
UUCCAGCAAUAUUACGCGCA | -0.0641 ± 0.12 | -0.358 ± 0.14
GGACAGCAAUAUUACGGGAA | -2.7 ± 0.1 | -1.04 ± 0.083
GUUUAGCAAUAUUACGCUAG | -2.38 ± 0.16 | -0.42 ± 0.13
AAAGAGCAAUAUUACGUGAU | -2.95 ± 0.1 | -1.81 ± 0.12
CUGCAGCAAUAUUACGCUAA | -3.28 ± 0.29 | 
CAACAGCAAUAUUACGAAGC | -3.45 ± 0.13 | -2.74 ± 0.15
AGGCAGCAAUAUUACGCUUU | -3.17 ± 0.35 | -1.41 ± 0.18
AAUCAGCAAUAUUACGUCGA | -0.548 ± 0.095 | 0.0423 ± 0.1
GUGAAGCAAUAUUACGCAUA | -0.646 ± 0.15 | -0.0533 ± 0.17
CGAUAGCAAUAUUACGUACU | -1.12 ± 0.081 | -0.791 ± 0.12
ACACAGCAAUAUUACGCGGG | -2.43 ± 0.075 | -1.69 ± 0.091
GCGCAGCAAUAUUACGCAUA | -0.539 ± 0.1 | -0.285 ± 0.1
UAACAGCAAUAUUACGCUGU | -3.79 ± 0.16 | -2.62 ± 0.19
AACCAGCAAUAUUACGGUUG | -2.21 ± 0.05 | -0.839 ± 0.06
UGAGAGCAAUAUUACGGAAG | -3.67 ± 0.23 | -2.2 ± 0.31
GCAUAGCAAUAUUACGGUUG | -2.82 ± 0.099 | -1.39 ± 0.11
GCGGAGCAAUAUUACGUGCA | -2.52 ± 0.29 | -0.813 ± 0.18
CAGAAGCAAUAUUACGAAUC |  | -1.93 ± 0.38
UUAUAGCAAUAUUACGCUCC | -2.11 ± 0.24 | 0.501 ± 0.45
ACGAAGCAAUAUUACGCGCU | -1.01 ± 0.09 | 0.163 ± 0.12
CCGUAGCAAUAUUACGUAAU | -4.17 ± 0.26 | -1.96 ± 0.26
GGCGAGCAAUAUUACGUAGU | -1.57 ± 0.13 | -0.422 ± 0.14

Sequence | self-splicing fitness (ln) (30 °C) | self-splicing fitness (ln) (37 °C)
UUCAAGCAAUAUUACGAUAU | -2.7 ± 0.18 | -1.42 ± 0.18
ACCAAGCAAUAUUACGGCUU | -3.85 ± 0.2 | -1.85 ± 0.16
CUAAAGCAAUAUUACGAUGU | -3.84 ± 0.18 | -2.58 ± 0.2
GCGAAGCAAUAUUACGUUGA | -2.59 ± 0.15 | -2.33 ± 0.14
GUAGAGCAAUAUUACGAUCA | -1.28 ± 0.23 | -0.907 ± 0.24
UUGCAGCAAUAUUACGAGGC | -3.55 ± 0.23 | -2.07 ± 0.22
CGCGAGCAAUAUUACGGAUU | -3.12 ± 0.17 | -2.51 ± 0.25
AGAUAGCAAUAUUACGCGCU | -2.31 ± 0.12 | -1.44 ± 0.14
UGUAAGCAAUAUUACGGGAU | -3.28 ± 0.32 | -2.46 ± 0.29
AGCUAGCAAUAUUACGGGAC | -3.37 ± 0.23 | -1.84 ± 0.24
UAGUAGCAAUAUUACGCCUC |  | -1.66 ± 0.31
ACCUAGCAAUAUUACGAUUG | -3.2 ± 0.21 | -2.28 ± 0.25
CGCGAGCAAUAUUACGCCUC | -1.53 ± 0.44 | -1.38 ± 0.43
CGUAAGCAAUAUUACGUAAA | -3.15 ± 0.24 | -2.1 ± 0.22
GGUAAGCAAUAUUACGGAAC | -1.55 ± 0.17 | -0.543 ± 0.21
CGGUAGCAAUAUUACGCUAC | -2.96 ± 0.47 | -2.93 ± 0.43
ACAGAGCAAUAUUACGGACU | -2.73 ± 0.18 | -1.07 ± 0.14
AUACAGCAAUAUUACGGGCC | -2.7 ± 0.17 | -2.82 ± 0.44
UUGAAGCAAUAUUACGAUAG | 0.155 ± 0.071 | 0.398 ± 0.095
AGAUAGCAAUAUUACGCUUU | -0.847 ± 0.11 | -1.2 ± 0.16
UGCCAGCAAUAUUACGUGUC | -3.01 ± 0.19 | -1.04 ± 0.13
AGGAAGCAAUAUUACGGUAG | -3.37 ± 0.36 | -1.6 ± 0.31
AAACAGCAAUAUUACGGGGG | -3.28 ± 0.22 | -2.52 ± 0.19
GCUAAGCAAUAUUACGACUA | -1.7 ± 0.19 | -0.865 ± 0.23
GAUUAGCAAUAUUACGCGGC | -3.08 ± 0.38 | -2 ± 0.35
GAUCAGCAAUAUUACGAGCA | -1.26 ± 0.1 | -0.318 ± 0.1

Sequence | self-splicing fitness (ln) (30 °C) | self-splicing fitness (ln) (37 °C)
GGUGAGCAAUAUUACGUUAC | -3.12 ± 0.47 | -0.718 ± 0.24
UUGUAGCAAUAUUACGCUCA | -1.27 ± 0.14 | 0.0359 ± 0.18
UAAAAGCAAUAUUACGAGGA | -2.79 ± 0.17 | -1.54 ± 0.14
AUGGAGCAAUAUUACGGGGA | -3.29 ± 0.4 | -2.28 ± 0.32
CUCGAGCAAUAUUACGCCGC |  | -2.12 ± 0.4
UGGAAGCAAUAUUACGGACG | -1.13 ± 0.16 | 0.0618 ± 0.28
AUGUAGCAAUAUUACGAUUU | -0.199 ± 0.093 | 0.373 ± 0.11
GCGCAGCAAUAUUACGAGAC | -3.09 ± 0.23 | -1.18 ± 0.18
UGCUAGCAAUAUUACGUGCU | -2.31 ± 0.16 | -2 ± 0.17
CAUAAGCAAUAUUACGGAGG | -2.3 ± 0.11 | -0.959 ± 0.13
ACUAAGCAAUAUUACGGUCC | -2.35 ± 0.2 | -1.04 ± 0.23
AUAGAGCAAUAUUACGCUGA | -1.26 ± 0.15 | -1.03 ± 0.17
CCCCAGCAAUAUUACGAGGC | -3.53 ± 0.26 | -3.1 ± 0.35
GCAGAGCAAUAUUACGUUUC | -4.1 ± 0.39 | -2.27 ± 0.44
UGUCAGCAAUAUUACGACGC | -2.44 ± 0.22 | -1.61 ± 0.22
CCCUAGCAAUAUUACGUCAU | -2.27 ± 0.13 | -3.11 ± 0.24
UAUAAGCAAUAUUACGGAAC | -4.02 ± 0.42 | -2.94 ± 0.41
AGCGAGCAAUAUUACGAGCU | -3.17 ± 0.24 | -2.49 ± 0.22
UGCAAGCAAUAUUACGCCUA | 0.231 ± 0.073 | 0.0781 ± 0.075
AGCUAGCAAUAUUACGGUUU | -2.66 ± 0.14 | -1.96 ± 0.14
UUCCAGCAAUAUUACGUACU |  | -1.82 ± 0.21
GCUAAGCAAUAUUACGUGCU | -2.4 ± 0.14 | -2.13 ± 0.25
UCGAAGCAAUAUUACGUCGA | -3.65 ± 0.47 | -1.78 ± 0.19
AUGUAGCAAUAUUACGUGAU | -1.52 ± 0.082 | -0.75 ± 0.11
AAGCAGCAAUAUUACGGACC | -1.42 ± 0.14 | -0.369 ± 0.17
